From US20190177414A1 (AKESO BIOPHARMA, published 2019)

Target: T1, CTLA4 antigen (CTLA4 protein obtained by cleaving the CTLA4-mFc fusion protein with TEV protease) (human, UniProt P16410 36-161)
T1 construct: extracellular domain; after cleavage part of the TEV site may remain at the C-terminus; also called CTLA4ECD
T1 sequence (looked up): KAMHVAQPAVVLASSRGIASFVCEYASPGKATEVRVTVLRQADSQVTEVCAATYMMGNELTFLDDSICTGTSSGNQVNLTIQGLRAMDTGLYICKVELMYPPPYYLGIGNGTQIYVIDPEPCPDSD
Test: Octet (ForteBio) BLI; antibody amine-coupled to AR2G sensor, CTLA4 antigen in solution
Protocol: The dynamic parameters of the antigen—antibody binding were determined using the ForteBio molecular interaction analyzer (Octet). The CTLA4-mFc fusion protein prepared in Example 1 was cleaved using the TEV protease, and the CTLA4 antigen was obtained by purification on a column. […] After equilibration in PBST, the CTLA4 antigen was added for binding. […] Dissociation occurred in PBST.

Kd: 0.301 nM
koff: 0.000114 s⁻¹
kon: 378000 M⁻¹ s⁻¹
B1: anti-CTLA4 antibody 4G10 (antibody, V domains shown)
VH: QVKLQESGPELVKPGASMKISCKASGYSFTGYTMNWVKQSHGKNLEWIGLINPYNNITNYNQKFMGKATFTVDKSSSTAYMELLRLTSEDSGVYFCARLDYRSYWGQGTLVTVSA
VL: QAVVTQESALTTSPGETVTLTCRSSTGAVTTSNFANWVQEKPDHLFTSLIGGTNNRAPGVPARFSGSLIGDKAALTITGAQTEDEAIYFCALWYSNHWVFGGGTKLTVLG
notes: Mouse monoclonal antibody purified from hybridoma supernatant; also called monoclonal antibody secreted by hybridoma cell line LT002 (CTLA4-4G10)
